Biological target: tau 4R2N (Homo sapiens, UniProt P10636-8 1-441)
Test: EMSA; Hill coefficient 2.6; EMSA: 100 mM sodium acetate pH 7.0, 0.5 mM EDTA, 0.5 mM MgCl2, 0.01% IGEPAL CA-630, RNase inhibitor, 37 C 10 min, TBE 8% gel; ITC: 20 mM ammonium acetate pH 7
Conditions: protein: recombinant; chain copies: 2; label: 3' biotin kit RNA

Chain of tau 4R2N (P10636 other isoform, or with tags, fused parts or gaps): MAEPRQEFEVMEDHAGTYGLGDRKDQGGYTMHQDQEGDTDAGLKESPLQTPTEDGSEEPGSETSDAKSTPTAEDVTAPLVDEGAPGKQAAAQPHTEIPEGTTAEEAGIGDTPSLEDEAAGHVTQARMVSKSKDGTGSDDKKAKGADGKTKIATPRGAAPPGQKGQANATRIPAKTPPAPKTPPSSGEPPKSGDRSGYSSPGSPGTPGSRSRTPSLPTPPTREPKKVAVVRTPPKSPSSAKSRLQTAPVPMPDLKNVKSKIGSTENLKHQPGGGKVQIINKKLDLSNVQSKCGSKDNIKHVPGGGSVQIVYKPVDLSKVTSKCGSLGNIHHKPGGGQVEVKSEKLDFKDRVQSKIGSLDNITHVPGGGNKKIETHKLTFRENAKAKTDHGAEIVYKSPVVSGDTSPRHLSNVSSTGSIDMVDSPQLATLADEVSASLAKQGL

B1: RNA43 (ssRNA)
RNA: CCUGGUUUUUAAGGAGUGUCGCCAGAGUGCCGCGAAUGAAAAA
With B1 the Kd was 832 ± 94 nM.

Reference: PMC5500003, “RNA stores tau reversibly in complex coacervates”
